# Test results taken from patent US11649460B2, “DNA aptamers, method for inhibiting human galectin-1 and method of treating a mammal in need thereof” (priority 2020, dated 2023).
# B1: CTGACACAGCAGGTTGGTGCCAACTAACACCATAAGAATACCCCGCTCCAAATAAGCCCACACGTAAACCCGAGTCGAGCAATCTCGAAAT (nucleic acid)
# DNA: CTGACACAGCAGGTTGGTGCCAACTAACACCATAAGAATACCCCGCTCCAAATAAGCCCACACGTAAACCCGAGTCGAGCAATCTCGAAAT
# modifications: chemistry not given here
# notes: DNA aptamer that recognizes human galectin-1
# Key:
# [1] = test system: OVCAR-3 cell line; assay: Synergism test with cisplatin, OVCAR-3; details: aptamer 12.5 μM associated with cisplatin 3 μM
# Text: For the analysis of cell proliferation, the non-clonogenic method of sulforodamine B (SRB) was used, a protein dye that binds to the basic amino acid residues of cell proteins that were viable at the time of the fixation process. Therefore, the greater the amount of SRB bound per compartment, the less the antiproliferative activity of the item under study.
# [2] = molecular target: T1, hGal1-induced hemagglutination of red blood cells (Homo sapiens, UniProt P09382); assay: Hemagglutination inhibition assay, native hGal1; format: cell-based
# T1 construct: 42; made in house; host or cells: E. coli strain M-15
# T1 sequence (P09382 2-135): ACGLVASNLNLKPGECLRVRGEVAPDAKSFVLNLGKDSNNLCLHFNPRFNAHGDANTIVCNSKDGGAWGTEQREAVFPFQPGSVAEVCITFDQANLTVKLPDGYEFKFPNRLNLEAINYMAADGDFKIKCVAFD
# Summary of the method: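 hGal1 (5 μM) was mixed with aptamer at 0-40 μM in PBS pH 7.4, then 3% type B+ human red blood cells were added and the mixture incubated 2 h at room temperature. Agglutination area was measured from plate photographs and expressed as relative agglutination.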
# [3] = test system: HT-29 human colorectal adenocarcinoma; assay: SRB cell proliferation (cytotoxicity) assay, HT-29
# Text: (§1) The XLSTAT software was used to determine the IC50, TGI and LC50 values using the four-parameter logistic curve equation.
# [4] = test system: DU-145 human prostate carcinoma cell line; assay: SRB cell proliferation (cytotoxicity) assay, DU-145
# Text: as §1
# [5] = molecular target: T2, alkylated Gal1 (Homo sapiens, UniProt P09382); assay: Hemagglutination inhibition assay, alkylated Gal1; format: cell-based; details: alkylated Gal1 5 μM
# T2 construct: 42; made in house; host or cells: E. coli strain M-15
# T2 sequence (P09382 2-135): as above
# Experimental: FIG. 15 illustrates the hemagglutination test with constant protein concentration at 5 μM and titration of aptamers SEQ ID NO.: 4 and SEQ ID NO.: 9. (a) Titration with aptamer 4. The hemagglutination of native Gal1 was inhibited from the concentration of 10 μM of this compound.
# Hemagglutination assay was adopted to assess the capacity of SEQ ID NO.: 4 in inhibiting the lectin cross-linking aggregation of red blood cells (RBC), as previously described. Briefly, using a 96-well microplates appropriate amounts of 5 μM hGal1 were blended with 50 μL of aptamer in an increasing concentrations manner (0-40 μM) in PBS 1× buffer (pH 7.4). Following, 50 μL of 3% purified type B+ RBC in PBS. After 2 h of room temperature incubation, the plate was photographed and the hemagglutination area was estimated by area calculator Sketchandcalc™ and the results were expressed as relative agglutination.
# It was observed that treating hGal-1 with Iodoacetamide, which covalently binds the acetamide group in all solvent accessible cysteines sulfhydryl side chain, abolishes the anti-hemagglutinating activity of the aptamer. According to the proposed binding mode, this happens because Cysteines 2, 88 and 130 interact directly with the aptamer and adding the acetamide group to their side chains would disrupt specific aptamer-protein interactions (FIG. 13C).
# [6] = test system: MCF-7 human breast adenocarcinoma cell line; assay: SRB cell proliferation (cytotoxicity) assay, MCF-7
# Text: as §1
# [7] = molecular target: T3, human galectin-1 (hGal1) (Homo sapiens, UniProt P09382); assay: Tryptophan fluorescence quenching (Stern-Volmer); format: binding; details: Stern-Volmer fit; 5 μM hGal1, aptamer 0 to 7.2 μM; read-out: apparent dissociation constant
# T3 construct: 42; made in house; host or cells: E. coli strain M-15
# T3 sequence (P09382 2-135): as above
# Experimental: Fluorescence measurements were taken by a spectrofluorimeter HITACHI F-4500, the spectra were collected by excitation and emission at a rate of 240 nm per min, using a 5 nm slit widths and recorded at room temperature. A total of 5 μM hGal1 solution was incubated for 10 hours with aptamer aliquots as quencher, from 0 to 7.2 μM, in PBS 1× buffer. The spectra were obtained between 300-450 nm after excitation at 295 nm and all buffer contributions were corrected for measurements. As previously described, the log of fluorescence quenching was evaluated by plotting it versus log of aptamer concentration. The Stern-Volmer equation was used to estimate the number of interacting sites (n) and the apparent kD.
# Human galectin-1 tryptophan residue has an emission peak at 348 nm after […] exited. SEQ ID NO.: 4 promotes changes the fluorescence spectrum of Trp68, which is the sole Trp in the subunit of hGal1 and is one of the residues constituting its CRD. Upon the aptamer addition, fluorescence emission decreased (FIG. 1C). The fluorescence quenching log versus aptamer concentration log measurements was plotted and it was fitted with Stern-volmer equation. The best fit established apparent dissociation constant of approximately 31.9 nM and a binding site of 1.5 (FIG. 1D).
# [8] = test system: A-375 human malignant melanoma; assay: SRB cell proliferation (cytotoxicity) assay, A-375
# Text: as §1
# [9] = test system: HCT 116 human colorectal carcinoma; assay: SRB cell proliferation (cytotoxicity) assay, HCT 116
# Text: as §1
# [10] = test system: SK-BR-3 human breast adenocarcinoma; assay: SRB cell proliferation (cytotoxicity) assay, SK-BR-3
# Text: as §1
molecule,measurement,setting,value
B1,decrease of cell viability versus cisplatin alone,[1],~60%
same,inhibition effect over RBC agglutination,"[2]; 10 μM aptamer, 5 μM hGal1",approximately 75%
same,inhibitory effect on galectin-induced hemagglutination,[2]; native Gal1 5 μM,better effect
same,concentration from which hemagglutination was inhibited,"[2]; native Gal1 5 μM, listed as aptamer 4",10 µM
same,Relative cell viability (%) of test items,[3]; 0.781 µM,93.5%
same,Relative cell viability (%) of test items,[3]; 1.562 µM,90.7%
same,Relative cell viability (%) of test items,[3]; 3.125 µM,88.6%
same,Relative cell viability (%) of test items,[3]; 6.25 µM,74.6%
same,Relative cell viability (%) of test items,[3]; 12.5 µM,47.4%
same,Relative cell viability (%) of test items,[3]; 25 µM,5.8%
same,Relative cell viability (%) of test items,[3]; 50 µM,−84.0%
same,Relative cell viability (%) of test items,[3]; 100 µM,−61.1%
same,TGI: Concentration for total inhibition of cell growth,[3]; HT-29,22.932 µM
same,IC50,"[3]; read-out: IC50: Concentration to inhibit 50% of cell growth, HT-29",13.5 µM
same,CC50,"[3]; read-out: LC50: Concentration for 50% cell death, HT-29",40.9 µM
same,Relative viability (%) of test items,[4]; 0.781 µM,109.3%
same,Relative viability (%) of test items,[4]; 1.562 µM,100.6%
same,Relative viability (%) of test items,[4]; 3.125 µM,104.7%
same,Relative viability (%) of test items,[4]; 6.25 µM,109.6%
same,Relative viability (%) of test items,[4]; 12.5 µM,104.3%
same,Relative viability (%) of test items,[4]; 25 µM,88.5%
same,Relative viability (%) of test items,[4]; 50 µM,68.4%
same,Relative viability (%) of test items,[4]; 100 µM,36.0%
same,IC50,"[4]; read-out: IC50: Concentration to inhibit 50% of cell growth, DU-145",72.6 µM
same,effect on hemagglutination by alkylated Gal1,[5],no observed effect
same,Relative viability (%) of test items,[6]; 0.781 µM,110.4%
same,Relative viability (%) of test items,[6]; 1.562 µM,96.7%
same,Relative viability (%) of test items,[6]; 3.125 µM,95.8%
same,Relative viability (%) of test items,[6]; 6.25 µM,86.2%
same,Relative viability (%) of test items,[6]; 12.5 µM,72.7%
same,Relative viability (%) of test items,[6]; 25 µM,60.9%
same,Relative viability (%) of test items,[6]; 50 µM,43.4%
same,Relative viability (%) of test items,[6]; 100 µM,0.7%
same,TGI: Concentration for total inhibition of cell growth,[6]; MCF-7,>100 µM
same,IC50,"[6]; read-out: IC50: Concentration to inhibit 50% of cell growth, MCF-7",35.1 µM
same,CC50,"[6]; read-out: LC50: Concentration for 50% cell death, MCF-7",> 100 µM
same,Kd,[7],~0.0319 µM
same,Relative cell viability (%) of test items,[8]; 0.781 µM,109.5%
same,Relative cell viability (%) of test items,[8]; 1.562 µM,100.6%
same,Relative cell viability (%) of test items,[8]; 3.125 µM,103.0%
same,Relative cell viability (%) of test items,[8]; 6.25 µM,97.3%
same,Relative cell viability (%) of test items,[8]; 12.5 µM,85.8%
same,Relative cell viability (%) of test items,[8]; 25 µM,35.7%
same,Relative cell viability (%) of test items,[8]; 50 µM,−69.0%
same,Relative cell viability (%) of test items,[8]; 100 µM,−72.3%
same,TGI: Concentration for total inhibition of cell growth,[8]; A-375,29.656 µM
same,IC50,"[8]; read-out: IC50: Concentration to inhibit 50% of cell growth, A-375",22.7 µM
same,CC50,"[8]; read-out: LC50: Concentration for 50% cell death, A-375",41.1 µM
same,Relative cell viability (%) of test items,[9]; 0.781 µM,103.6%
same,Relative cell viability (%) of test items,[9]; 1.562 µM,95.4%
same,Relative cell viability (%) of test items,[9]; 3.125 µM,85.5%
same,Relative cell viability (%) of test items,[9]; 6.25 µM,85.0%
same,Relative cell viability (%) of test items,[9]; 12.5 µM,57.1%
same,Relative cell viability (%) of test items,[9]; 25 µM,24.4%
same,Relative cell viability (%) of test items,[9]; 50 µM,3.6%
same,Relative cell viability (%) of test items,[9]; 100 µM,−70.2%
same,TGI: Concentration for total inhibition of cell growth,[9]; HCT 116,45.410 µM
same,IC50,"[9]; read-out: IC50: Concentration to inhibit 50% of cell growth, HCT 116",16.8 µM
same,CC50,"[9]; read-out: LC50: Concentration for 50% cell death, HCT 116",84.4 µM
same,Relative cell viability (%) of test items,[10]; 0.781 µM,101.9%
same,Relative cell viability (%) of test items,[10]; 1.562 µM,103.4%
same,Relative cell viability (%) of test items,[10]; 3.125 µM,98.6%
same,Relative cell viability (%) of test items,[10]; 6.25 µM,106.2%
same,Relative cell viability (%) of test items,[10]; 12.5 µM,96.1%
same,Relative cell viability (%) of test items,[10]; 25 µM,47.0%
same,Relative cell viability (%) of test items,[10]; 50 µM,−34.6%
same,Relative cell viability (%) of test items,[10]; 100 µM,−86.3%
same,TGI: Concentration for total inhibition of cell growth,[10]; SK-BR-3,37.515 µM
same,IC50,"[10]; read-out: IC50: Concentration to inhibit 50% of cell growth, SK-BR-3",25 µM
same,CC50,"[10]; read-out: LC50: Concentration for 50% cell death, SK-BR-3",56.9 µM
